Experimental data from article doi:10.64898/2025.12.10.693404.

Experiments:
His6-SUMO-TDP-43 [1] = molecular target: T1, His6-SUMO-TDP-43 (UniProt Q13148 1-414); assay: fluorescence anisotropy
His6-SUMO-TDP-43 [2] = molecular target: T1, His6-SUMO-TDP-43; assay: fluorescence anisotropy; remark: listed apart in the source

T1 sequence (Q13148 whole entry): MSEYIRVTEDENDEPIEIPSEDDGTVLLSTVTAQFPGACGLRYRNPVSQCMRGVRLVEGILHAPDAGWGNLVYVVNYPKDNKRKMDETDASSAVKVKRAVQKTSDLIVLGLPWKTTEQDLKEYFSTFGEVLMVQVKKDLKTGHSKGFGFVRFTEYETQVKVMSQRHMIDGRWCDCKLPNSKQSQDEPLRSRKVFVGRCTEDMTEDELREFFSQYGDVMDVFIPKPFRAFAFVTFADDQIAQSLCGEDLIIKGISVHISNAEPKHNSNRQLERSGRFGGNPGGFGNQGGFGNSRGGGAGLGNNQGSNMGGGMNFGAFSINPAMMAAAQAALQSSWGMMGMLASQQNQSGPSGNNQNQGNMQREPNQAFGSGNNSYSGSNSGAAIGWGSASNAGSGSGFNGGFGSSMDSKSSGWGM

Binder	Kd (His6-SUMO-TDP-43 [1]) [nM]	binding result (His6-SUMO-TDP-43 [2])
TGTGTGTG (ssDNA) [(TG)4]	~1800	
ACACACAC (ssDNA) [(AC)4]		no binding
